T1: mouse TRAIL expressed on transiently transfected 293T cells (mouse, UniProt P50592 1-291)
T1 construct: whole, on cells; also called mTRAIL; mouse (m) TRAIL
T1 sequence (looked up): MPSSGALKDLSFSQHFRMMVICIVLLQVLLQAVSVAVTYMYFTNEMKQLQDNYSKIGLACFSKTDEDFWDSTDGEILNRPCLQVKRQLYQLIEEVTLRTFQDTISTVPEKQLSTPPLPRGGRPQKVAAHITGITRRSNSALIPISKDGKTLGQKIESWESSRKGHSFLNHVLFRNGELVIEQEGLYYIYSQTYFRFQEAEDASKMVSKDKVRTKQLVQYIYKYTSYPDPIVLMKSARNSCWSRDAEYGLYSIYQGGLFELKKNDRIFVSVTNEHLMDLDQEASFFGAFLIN


biological target: T2, TRAIL (TNFSF10) ectodomain (UniProt P50591 39-281, limits assumed); assay: SPR, mutant TRAIL-R2-Fc captured, TRAIL as analyte
T2 construct: extracellular domain; also called endogenous TRAIL; TRAIL ectodomain
T2 sequence (P50591 39-281 limits assumed): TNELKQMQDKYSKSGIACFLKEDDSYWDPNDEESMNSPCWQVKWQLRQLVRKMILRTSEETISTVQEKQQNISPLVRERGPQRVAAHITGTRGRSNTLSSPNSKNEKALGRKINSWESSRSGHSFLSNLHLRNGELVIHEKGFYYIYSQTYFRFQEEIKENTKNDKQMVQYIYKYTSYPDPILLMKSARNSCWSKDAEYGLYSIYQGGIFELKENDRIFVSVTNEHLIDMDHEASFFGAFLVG

| Binder | Kd [nM] | koff [s⁻¹] | kon [M⁻¹ s⁻¹] | binding result |
| --- | --- | --- | --- | --- |
| TRAIL-R2-Fc K155A (Fc fusion, human, not shown: a dimerising Fc or GST, range 58-184) QQDLAPQQRAAPQQKRSSPSEGLCPPGHHISEDGRDCISCKYGQDYSTHWNDLLFCLRCTRCDSGEVELSPCTTTRNTVCQCEEGTFREEDSPEMCRACRTGCPRGMVKVGDCTPWSDIECVHKESGLVPRGS | 39.7 | 0.000138 | 3480 |  |
| TRAIL-R2-Fc M152A/R154A/K155A (Fc fusion, human, not shown: a dimerising Fc or GST, range 58-184; also called M152/R154/K155) QQDLAPQQRAAPQQKRSSPSEGLCPPGHHISEDGRDCISCKYGQDYSTHWNDLLFCLRCTRCDSGEVELSPCTTTRNTVCQCEEGTFREEDSPEACAACRTGCPRGMVKVGDCTPWSDIECVHKESGLVPRGS |  |  |  | no binding |
| TRAIL-R2-Fc V167A (Fc fusion, human, not shown: a dimerising Fc or GST, range 58-184) QQDLAPQQRAAPQQKRSSPSEGLCPPGHHISEDGRDCISCKYGQDYSTHWNDLLFCLRCTRCDSGEVELSPCTTTRNTVCQCEEGTFREEDSPEMCRKCRTGCPRGMVKAGDCTPWSDIECVHKESGLVPRGS | 4.35 | 9.57e-06 | 2200 |  |
| TRAIL-R2-Fc D148A (Fc fusion, human, not shown: a dimerising Fc or GST, range 58-184) QQDLAPQQRAAPQQKRSSPSEGLCPPGHHISEDGRDCISCKYGQDYSTHWNDLLFCLRCTRCDSGEVELSPCTTTRNTVCQCEEGTFREEASPEMCRKCRTGCPRGMVKVGDCTPWSDIECVHKESGLVPRGS | 4.48 | 3.58e-05 | 8000 |  |
| TRAIL-R2-Fc F112A (Fc fusion, human, not shown: a dimerising Fc or GST, range 58-184) QQDLAPQQRAAPQQKRSSPSEGLCPPGHHISEDGRDCISCKYGQDYSTHWNDLLACLRCTRCDSGEVELSPCTTTRNTVCQCEEGTFREEDSPEMCRKCRTGCPRGMVKVGDCTPWSDIECVHKESGLVPRGS | 3.94 | 9.86e-06 | 2500 |  |
| TRAIL-R2-Fc P150A (Fc fusion, human, not shown: a dimerising Fc or GST, range 58-184) QQDLAPQQRAAPQQKRSSPSEGLCPPGHHISEDGRDCISCKYGQDYSTHWNDLLFCLRCTRCDSGEVELSPCTTTRNTVCQCEEGTFREEDSAEMCRKCRTGCPRGMVKVGDCTPWSDIECVHKESGLVPRGS | 4.29 | 9.02e-06 | 2100 |  |
| TRAIL-R2-Fc Y103A/R133A (Fc fusion, human, not shown: a dimerising Fc or GST, range 58-184; also called Y103/R133) QQDLAPQQRAAPQQKRSSPSEGLCPPGHHISEDGRDCISCKYGQDASTHWNDLLFCLRCTRCDSGEVELSPCTTTANTVCQCEEGTFREEDSPEMCRKCRTGCPRGMVKVGDCTPWSDIECVHKESGLVPRGS |  |  |  | no binding |
| TRAIL-R2-Fc M152A (Fc fusion, human, not shown: a dimerising Fc or GST, range 58-184) QQDLAPQQRAAPQQKRSSPSEGLCPPGHHISEDGRDCISCKYGQDYSTHWNDLLFCLRCTRCDSGEVELSPCTTTRNTVCQCEEGTFREEDSPEACRKCRTGCPRGMVKVGDCTPWSDIECVHKESGLVPRGS | 202 | 0.000678 | 3350 |  |
| TRAIL-R2-Fc Y103A/N134A (Fc fusion, human, not shown: a dimerising Fc or GST, range 58-184; also called Y103/N134) QQDLAPQQRAAPQQKRSSPSEGLCPPGHHISEDGRDCISCKYGQDASTHWNDLLFCLRCTRCDSGEVELSPCTTTRATVCQCEEGTFREEDSPEMCRKCRTGCPRGMVKVGDCTPWSDIECVHKESGLVPRGS |  |  |  | no binding |
| TRAIL-R2-Fc L110A/L114A (Fc fusion, human, not shown: a dimerising Fc or GST, range 58-184; also called L110/L114) QQDLAPQQRAAPQQKRSSPSEGLCPPGHHISEDGRDCISCKYGQDYSTHWNDALFCARCTRCDSGEVELSPCTTTRNTVCQCEEGTFREEDSPEMCRKCRTGCPRGMVKVGDCTPWSDIECVHKESGLVPRGS |  |  |  | no binding |
| TRAIL-R2-Fc E151A (Fc fusion, human, not shown: a dimerising Fc or GST, range 58-184) QQDLAPQQRAAPQQKRSSPSEGLCPPGHHISEDGRDCISCKYGQDYSTHWNDLLFCLRCTRCDSGEVELSPCTTTRNTVCQCEEGTFREEDSPAMCRKCRTGCPRGMVKVGDCTPWSDIECVHKESGLVPRGS |  |  |  | no binding (tested: up to 1 µM ligand) |

biological target: T1, mouse TRAIL expressed on transiently …; assay: flow cytometry on 293T cells transfected with mouse TRAIL

| Binder | binding result |
| --- | --- |
| mouse TRAIL-R2:Fc (extracellular domain of mouse TRAIL-R2 fused to human IgG constant domain) (Fc fusion, UniProt Q9QZM4 53-180, looked up, extracellular domain; also called mTRAIL-R2:Fc; not shown: printed only as the human IgG VH constant domain; subclass, limits and linker no) NPAHNRPAGLQRPEESPSRGPCLAGQYLSEGNCKPCREGIDYTSHSNHSLDSCILCTVCKEDKVVETRCNITTNTVCRCKPGTFEDKDSPEICQSCSNCTDGEEELTSCTPRENRKCVSKTAWASWHK | binds |
